Laboratory results taken from article PMC8809517, “Cofactor-independent RNA editing by a synthetic S-type PPR protein”.
Changes are numbered by the printed parent chain.

Key:
Test in all cases: high-throughput RNA pulldown from lysate on Ni-NTA beads; HRP: 50 mM Tris pH 8, 150 mM NaCl, 1 mM beta-mercaptoethanol, 50 ug/ml BSA, 3 ug/ml yeast RNA, 0.5% heparin; ITC and FP: Tris pH 8, 200 mM KCl, 5% glycerol; MST: 50 mM Tris pH 8, 200 mM NaCl, 1 mM DTT, BSA, heparin, 0.05% Tween 20
Conditions in all cases: tags: N-terminal His-eGFP
[1] = biological target: T1, GFP-9S library array, motif 4 ND N98C;D124F (synthetic construct, N98C;D124F)
T1 chain: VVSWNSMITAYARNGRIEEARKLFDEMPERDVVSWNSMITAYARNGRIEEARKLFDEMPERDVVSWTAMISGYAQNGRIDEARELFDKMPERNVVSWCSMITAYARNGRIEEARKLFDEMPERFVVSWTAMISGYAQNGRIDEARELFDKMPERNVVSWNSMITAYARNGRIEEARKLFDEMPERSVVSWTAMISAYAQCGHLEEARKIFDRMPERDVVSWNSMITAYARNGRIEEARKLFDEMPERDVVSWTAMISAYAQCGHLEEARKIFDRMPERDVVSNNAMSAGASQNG

[2] = biological target: T2, GFP-9S library array, motif 4 ND N98S;D124G (synthetic construct, N98S;D124G)
T2 chain: T1 chain with C98S, F124G

[3] = biological target: T3, GFP-9S library array, motif 4 ND N98L;D124M (synthetic construct, N98L;D124M)
T3 chain: T1 chain with C98L, F124M

[4] = biological target: T4, GFP-9S library array, motif 4 ND N98W;D124Q (synthetic construct, N98W;D124Q)
T4 chain: T1 chain with C98W, F124Q

[5] = biological target: T5, GFP-9S library array, motif 4 ND N98Q;D124V (synthetic construct, N98Q;D124V)
T5 chain: T1 chain with C98Q, F124V

With AUUAGACGUGA (ssRNA) [Cy5-rpoA-G] as the binder, how does the Kd ([1]; label: 5' Cy5) read?
The Kd was 0.1 µM.

And the Kd ([2]; label: 5' Cy5)?
The Kd was 0.157 µM.

What about the Kd ([3]; label: 5' Cy5) of the same binder?
Its Kd is 0.122 µM.

And the Kd ([4]; label: 5' Cy5)?
Its Kd is 0.0944 µM.

What about the Kd ([5]; label: 5' Cy5) of the same binder?
The Kd was 3.04 µM.

With AUUACACGUGA (ssRNA) [Cy5-rpoA] as the binder, how does the Kd ([1]; label: 5' Cy5) read?
The Kd was 0.126 µM.

And the Kd ([2]; label: 5' Cy5)?
The Kd was 0.181 µM.

And the Kd ([3]; label: 5' Cy5)?
Its Kd is 0.104 µM.

And the Kd ([4]; label: 5' Cy5)?
Its Kd is 0.101 µM.

And the Kd ([5]; label: 5' Cy5)?
Its Kd is 3.53 µM.

Which results are given for AUUAUACGUGA (ssRNA) [IR-rpoA-U]?
Kd ([1]; label: 5' IRDye 800CW): 0.317 µM; Kd ([2]; label: 5' IRDye 800CW): 0.182 µM; Kd ([3]; label: 5' IRDye 800CW): 0.176 µM; Kd ([4]; label: 5' IRDye 800CW): 0.195 µM; Kd ([5]; label: 5' IRDye 800CW): 3.18 µM

For AUUAAACGUGA (ssRNA) [IR-rpoA-A], which Kd ([1]; label: 5' IRDye 800CW) is on record?
Its Kd is 0.203 µM.

And the Kd ([2]; label: 5' IRDye 800CW)?
Its Kd is 0.122 µM.

What about the Kd ([3]; label: 5' IRDye 800CW) of the same binder?
The Kd was 0.381 µM.

And the Kd ([4]; label: 5' IRDye 800CW)?
The Kd was 0.224 µM.

What about the Kd ([5]; label: 5' IRDye 800CW) of the same binder?
The Kd was 4.09 µM.
